The values that follow come from patent publication EP4491631A1.

In assay [1] the target is CD122/CD132 complex (His-tagged, Acro Biosystem ILG-H5283) (UniProt P14784). Description: SPR, CD122/CD132 captured on NTA chip.
In assay [2] the target is IL-2R on murine splenocytes (mouse) (UniProt P16297). As to the kind of experiment: cell-based or functional assay.
Sequence of IL-2R on murine splenocytes (mouse) (P16297 27-539, chain 1 of 2): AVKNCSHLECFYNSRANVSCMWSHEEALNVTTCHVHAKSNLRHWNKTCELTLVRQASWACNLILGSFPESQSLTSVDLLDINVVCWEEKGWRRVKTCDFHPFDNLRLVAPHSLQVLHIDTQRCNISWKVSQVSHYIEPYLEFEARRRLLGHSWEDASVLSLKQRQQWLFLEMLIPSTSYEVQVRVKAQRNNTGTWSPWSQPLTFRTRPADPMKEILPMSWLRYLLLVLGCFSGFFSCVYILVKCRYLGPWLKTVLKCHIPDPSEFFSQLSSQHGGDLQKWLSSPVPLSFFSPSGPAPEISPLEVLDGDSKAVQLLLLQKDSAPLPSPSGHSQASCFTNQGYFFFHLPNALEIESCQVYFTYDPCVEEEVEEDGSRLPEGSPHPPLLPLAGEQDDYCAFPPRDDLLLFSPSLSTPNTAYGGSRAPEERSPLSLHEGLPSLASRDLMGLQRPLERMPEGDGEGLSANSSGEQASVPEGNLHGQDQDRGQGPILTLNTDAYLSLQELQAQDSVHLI
Sequence of IL-2R on murine splenocytes (mouse) (P34902 23-369, chain 2 of 2, further chain): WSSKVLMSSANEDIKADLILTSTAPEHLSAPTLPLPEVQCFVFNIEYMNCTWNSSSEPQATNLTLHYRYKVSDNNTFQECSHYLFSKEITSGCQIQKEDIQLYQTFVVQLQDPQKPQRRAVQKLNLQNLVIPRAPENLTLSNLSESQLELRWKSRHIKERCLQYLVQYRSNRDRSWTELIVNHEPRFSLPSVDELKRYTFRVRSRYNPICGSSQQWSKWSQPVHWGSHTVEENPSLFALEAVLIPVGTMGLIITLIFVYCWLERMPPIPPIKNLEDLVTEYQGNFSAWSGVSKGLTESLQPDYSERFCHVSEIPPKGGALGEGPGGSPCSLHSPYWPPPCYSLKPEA

Sequence of CD122/CD132 complex (His-tagged, Acro Biosystem ILG-H5283) (P14784 27-239 limits assumed, chain 1 of 2): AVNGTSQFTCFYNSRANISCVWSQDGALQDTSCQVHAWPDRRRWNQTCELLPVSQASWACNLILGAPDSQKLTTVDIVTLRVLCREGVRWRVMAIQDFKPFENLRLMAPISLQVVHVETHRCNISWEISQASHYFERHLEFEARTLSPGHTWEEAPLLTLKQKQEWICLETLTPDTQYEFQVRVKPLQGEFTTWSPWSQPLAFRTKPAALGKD
Sequence of CD122/CD132 complex (His-tagged, Acro Biosystem ILG-H5283) (P31785 23-262 limits assumed, chain 2 of 2, further chain): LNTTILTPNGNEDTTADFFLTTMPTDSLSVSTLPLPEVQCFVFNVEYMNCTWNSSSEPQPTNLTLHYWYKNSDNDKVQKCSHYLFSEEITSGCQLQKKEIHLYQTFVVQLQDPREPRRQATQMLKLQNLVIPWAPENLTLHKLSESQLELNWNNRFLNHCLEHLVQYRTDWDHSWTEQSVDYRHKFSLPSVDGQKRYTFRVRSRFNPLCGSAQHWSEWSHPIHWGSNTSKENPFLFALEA

The substance Proleukin (ligand) showed an equilibrium dissociation constant (Kd) in assay [1] of 0.42 nM. In assay [2], this substance had an EC50 CD8 cells (pSTAT5) of 4.1 nM, an EC50 NK cells (pSTAT5) of 1.4 nM, an EC50 Treg cells (pSTAT5) of less than 16 pM and an EC50 pSTAT5 on CD8 cells of 11.9 nM. For the same substance, in assay [2], the EC50 pSTAT5 on NK cells amounted to 2.51 nM and the EC50 pSTAT5 on Treg cells is less than 20 pM.

By Kd is commonly meant the constant that tells how readily two partners part at equilibrium. Low values mean tighter binding, high ones weaker binding.
